Series [1] addresses truncated variant of ZapT-His that lacks the C-terminal sensor domain (Caulobacter crescentus). As to the kind of experiment: SEC; Superdex 200 PC3.2/30; 25 mM Tris-HCl pH 7.5, 300 mM NaCl, 20% sucrose; 20 ul/min; fractions on SDS-15% PAGE, Coomassie; single proteins and mixtures (also His-ZauP + ZapT-His + ZapTΔC-His with ZapT-His as internal control).
Series [2] deals with the molecule itself. Described as above.

Experimental findings from article PMC7858052, “Z-Ring-Associated Proteins Regulate Clustering of the Replication Terminus-Binding Protein ZapT in Caulobacter crescentus” (mBio, 2021) are described below.

As usually defined, the stoichiometry N is the number of molecules, sites or subunits per partner or assembly.

With “truncated variant of ZapT-His that lacks the C-terminal sensor domain (domain or fragment)”, in series [1], the stoichiometry N worked out at 2.

B1: ZauP with an N-terminal hexahistidine-SUMO tag (natural protein, Caulobacter crescentus, UniProt A0A0H3CD23 1-127, looked up)
chain: MIPADSTALDLAVRRLERAVSQLEQRLAAKAAETQRALAAAATSAVALPLAVTEPSLFDDDERARLVADLEAAREREKALEEAGEQASVALGRAIAEIRAALGDESVANDLHAPGDDDDLFEDSEEA
notes: ZauP, functional ZapB homolog of Caulobacter crescentus NA1000, locus CCNA_03357; tagged protein printed as 26 kDa; primers Nhis-SUMO-zapB-P3/P4 run from the start codon to the stop codon; also called His-ZauP; source: E. coli, purified (procedure in Text S1); not shown: His6-SUMO, N-terminal, kept
For B1, the “stoichiometry N” value in series [2] came out at 6.

B2: ZapT with a C-terminal hexahistidine tag (natural protein, Caulobacter crescentus, UniProt A0A0H3C832 1-141, looked up)
chain: MAKGPNAFRTISEAAEELGVPQHVLRFWETKFSFIRPMKRAGGRRFYRPQDIAVLNGVRTLLHSEGLTIKGVQKLHRDHGLAHVIAAGLGSNGSASLEAEYDYAPRGKERPVGEETRDRLAFALADLTAIKSRLDGLLARG
notes: tagged protein printed as 21 kDa; the last residue of ZapT is printed as Gly141; also called ZapT-His; wild-type ZapT-His; source: E. coli, purified (procedure in Text S1); not shown: His6, C-terminal, kept
In the case of B2, the “stoichiometry N” value in series [2] was determined as 2.

B3: ZapA with an N-terminal hexahistidine-MBP tag (natural protein, Caulobacter crescentus, UniProt A0A0H3CCW6 1-108, looked up)
chain: MAQVTIQVNGRPYMVGCEDGQEPHLTELARLFDRQVRQVSQDVGQLGETRLFLMGALLLADELSDMKLRLAHANAEIARMQQEGTKAEIAAIRALDAAAERIEKLATE
notes: ZapA, Z-ring-associated protein of Caulobacter crescentus NA1000, locus CCNA_03356; tagged protein printed as 56 kDa; primers NhisMBP-zapA-fwd/rev run from the start codon to the stop codon; also called His-ZapA; source: E. coli, purified (procedure in Text S1); not shown: His6-MBP, N-terminal, kept
For the molecule B3, the “stoichiometry N” value in series [2] was 4.
